# From article doi:10.1101/2022.10.17.512556 (bioRxiv, 2022)
# Several values for one entry are separate records, joined by “and”; a condition that tells them apart may be missing. Equal entries are not always repeated. Where two headings read alike, the source gives them in different places.
# B1: S210A DegP (enzyme)
# chain: AETSSATTAQQMPSLAPMLEKVMPSVVSINVEGSTTVNTPRMPRNFQQFFGDDSPFCQEGSPFQSSPFCQGGQGGNGGGQQQKFMALGSGVIIDADKGYVVTNNHVVDNATVIKVQLSDGRKFDAKMVGKDPRSDIALIQIQNPKNLTAIKMADSDALRVGDYTVAIGNPFGLGETVTSGIVSALGRSGLNAENYENFIQTDAAINRGNAGGALVNLNGELIGINTAILAPDGGNIGIGFAIPSNMVKNLTSQMVEYGQVKRGELGIMGTELNSELAKAMKVDAQRGAFVSQVLPNSSAAKAGIKAGDVITSLNGKPISSFAALRAQVGTMPVGSKLTLGLLRDGKQVNVNLELQQSSQNQVDSSSIFNGIEGAEMSNKGKDQGVVVNNVKTGTPAAQIGLKKGDVIIGANQQAVKNIAELRKVLDSKPSVLALNIQRGDSTIYLLMQ
# Key:
# [1] = target: the molecule itself; assay: cryo-EM structure
# [2] = target: the molecule itself; assay: cryo-EM structure; remark: listed apart in the source
protein,measurement,setting,value
B1,stoichiometry N,[1],30 and 60
same,stoichiometry N,[2],18
